Measurements as given in patent US11504441B2, “Radiolabeled compounds targeting the prostate-specific membrane antigen” (PROVINCIAL HEALTH SERVICES AUTHORITY, priority 2019, dated 2022).

How the values were obtained:
[1] = tested on: PSMA-expressing LNCaP cancer xenografts; conditions: mouse, in vivo
in vivo = conditions: male, NODSCID 1L2RγKO, mouse, iv, total radioactivity; for excreta dose per gram or mL at 1 h: Urine uptake

O=C(O)CN1CCN(CC(=O)O)CCN(CC(=O)NC[C@H]2CC[C@H](C(=O)N[C@@H](Cc3c4ccccc4cc4ccccc34)C(=O)NCCCC[C@H](NC(=O)N[C@@H](C[C@@H](F)C(=O)O)C(=O)O)C(=O)O)CC2)CCN(CC(=O)O)CC1 [68Ga-HTK04033, metal not drawn]
Blood: Salivary ratio [1]: 4.38 ± 0.57 | Tumor: Blood ratio [1]: 31.7 ± 5.00 | Tumor: Kidney ratio [1]: 5.64 ± 1.37 | Tumor: Muscle ratio [1]: 221 ± 53.4 | Tumor: Salivary ratio [1]: 138 ± 21.1 | tissue uptake at 1 h (in vivo; Adrenal glands uptake): 0.16 ± 0.03 %ID/g | tissue uptake at 1 h (in vivo; Blood uptake): 0.59 ± 0.12 %ID/g | tissue uptake at 1 h (in vivo; Bone uptake): 0.08 ± 0.01 %ID/g | tissue uptake at 1 h (in vivo; Brain uptake): 0.02 %ID/g | tissue uptake at 1 h (in vivo; Fat uptake): 0.1 ± 0.03 %ID/g | tissue uptake at 1 h (in vivo; Heart uptake): 0.18 ± 0.06 %ID/g | tissue uptake at 1 h (in vivo; Intestine uptake): 0.2 ± 0.04 %ID/g | tissue uptake at 1 h (in vivo; Kidneys uptake): 3.31 ± 0.34 %ID/g | tissue uptake at 1 h (in vivo; Lacrimal uptake): 0.04 ± 0.03 %ID/g | tissue uptake at 1 h (in vivo; Liver uptake): 0.29 ± 0.09 %ID/g | tissue uptake at 1 h (in vivo; Lungs uptake): 0.5 ± 0.05 %ID/g | tissue uptake at 1 h (in vivo; Muscle uptake): 0.09 ± 0.04 %ID/g | tissue uptake at 1 h (in vivo; Pancreas uptake): 0.15 ± 0.08 %ID/g | tissue uptake at 1 h (in vivo; Salivary uptake): 0.13 ± 0.02 %ID/g | tissue uptake at 1 h (in vivo; Seminal uptake): 0.1 ± 0.04 %ID/g | tissue uptake at 1 h (in vivo; Spleen uptake): 0.19 ± 0.03 %ID/g | tissue uptake at 1 h (in vivo; Stomach uptake): 0.07 ± 0.03 %ID/g | tissue uptake at 1 h (in vivo; Tail uptake): 0.66 ± 0.5 %ID/g | tissue uptake at 1 h (in vivo; Testes uptake): 0.17 ± 0.05 %ID/g | tissue uptake at 1 h (in vivo; Thyroid uptake): 0.18 ± 0.03 %ID/g | tissue uptake at 1 h (in vivo; Tumor uptake): 18.5 ± 4.05 %ID/g | excreta dose per gram or mL at 1 h (in vivo): 440 ± 211 %ID/g

O=C(O)CCC[C@H](NC(=O)N[C@@H](CCCCNC(=O)[C@H](Cc1ccc2ccccc2c1)NC(=O)[C@H]1CC[C@H](CNC(=O)CN2CCN(CC(=O)O)CCN(CC(=O)O)CCN(CC(=O)O)CC2)CC1)C(=O)O)C(=O)O [68Ga-HTK03169, metal not drawn]
Blood: Salivary ratio [1]: 4.39 ± 2.06 | Tumor: Blood ratio [1]: 6.09 ± 2.24 | Tumor: Kidney ratio [1]: 1.47 ± 0.16 | Tumor: Muscle ratio [1]: 47.1 ± 12.3 | Tumor: Salivary ratio [1]: 23.2 ± 1.91 | tissue uptake at 1 h (in vivo; Adrenal glands uptake): 0.24 ± 0.08 %ID/g | tissue uptake at 1 h (in vivo; Blood uptake): 0.63 ± 0.36 %ID/g | tissue uptake at 1 h (in vivo; Bone uptake): 0.08 ± 0.03 %ID/g | tissue uptake at 1 h (in vivo; Brain uptake): 0.02 ± 0.01 %ID/g | tissue uptake at 1 h (in vivo; Fat uptake): 0.09 ± 0.04 %ID/g | tissue uptake at 1 h (in vivo; Heart uptake): 0.14 ± 0.07 %ID/g | tissue uptake at 1 h (in vivo; Intestine uptake): 0.23 ± 0.16 %ID/g | tissue uptake at 1 h (in vivo; Kidneys uptake): 2.18 ± 0.48 %ID/g | tissue uptake at 1 h (in vivo; Lacrimal uptake): 0.13 ± 0.06 %ID/g | tissue uptake at 1 h (in vivo; Liver uptake): 0.21 ± 0.16 %ID/g | tissue uptake at 1 h (in vivo; Lungs uptake): 0.38 ± 0.17 %ID/g | tissue uptake at 1 h (in vivo; Muscle uptake): 0.08 ± 0.05 %ID/g | tissue uptake at 1 h (in vivo; Pancreas uptake): 0.11 ± 0.05 %ID/g | tissue uptake at 1 h (in vivo; Salivary uptake): 0.14 ± 0.03 %ID/g | tissue uptake at 1 h (in vivo; Seminal uptake): 3.83 ± 2.93 %ID/g | tissue uptake at 1 h (in vivo; Spleen uptake): 0.13 ± 0.06 %ID/g | tissue uptake at 1 h (in vivo; Stomach uptake): 0.09 ± 0.11 %ID/g | tissue uptake at 1 h (in vivo; Tail uptake): 0.48 ± 0.2 %ID/g | tissue uptake at 1 h (in vivo; Testes uptake): 0.13 ± 0.07 %ID/g | tissue uptake at 1 h (in vivo; Thyroid uptake): 0.16 ± 0.07 %ID/g | tissue uptake at 1 h (in vivo; Tumor uptake): 3.19 ± 0.7 %ID/g | excreta dose per gram or mL at 1 h (in vivo): 421 ± 187 %ID/g

O=C(O)CCC[C@H](NC(=O)N[C@@H](CCCCNC(=O)[C@H](Cc1cccc(I)c1)NC(=O)[C@H]1CC[C@H](CNC(=O)CN2CCN(CC(=O)O)CCN(CC(=O)O)CCN(CC(=O)O)CC2)CC1)C(=O)O)C(=O)O [68Ga-HTK04053, metal not drawn]
Blood: Salivary ratio [1]: 5.19 ± 1.73 | Tumor: Blood ratio [1]: 16.8 ± 7.00 | Tumor: Kidney ratio [1]: 1.84 ± 1.26 | Tumor: Muscle ratio [1]: 93.7 ± 27.0 | Tumor: Salivary ratio [1]: 84.3 ± 32.1 | tissue uptake at 1 h (in vivo; Adrenal glands uptake): 0.12 ± 0.03 %ID/g | tissue uptake at 1 h (in vivo; Blood uptake): 0.29 ± 0.05 %ID/g | tissue uptake at 1 h (in vivo; Bone uptake): 0.04 ± 0.01 %ID/g | tissue uptake at 1 h (in vivo; Brain uptake): 0.01 %ID/g | tissue uptake at 1 h (in vivo; Fat uptake): 0.04 ± 0.01 %ID/g | tissue uptake at 1 h (in vivo; Heart uptake): 0.09 ± 0.02 %ID/g | tissue uptake at 1 h (in vivo; Intestine uptake): 0.15 ± 0.03 %ID/g | tissue uptake at 1 h (in vivo; Kidneys uptake): 3.48 ± 2.39 %ID/g | tissue uptake at 1 h (in vivo; Lacrimal uptake): 0.05 ± 0.01 %ID/g | tissue uptake at 1 h (in vivo; Liver uptake): 0.13 ± 0.07 %ID/g | tissue uptake at 1 h (in vivo; Lungs uptake): 0.28 ± 0.04 %ID/g | tissue uptake at 1 h (in vivo; Muscle uptake): 0.05 ± 0.01 %ID/g | tissue uptake at 1 h (in vivo; Pancreas uptake): 0.06 ± 0.02 %ID/g | tissue uptake at 1 h (in vivo; Salivary uptake): 0.06 ± 0.02 %ID/g | tissue uptake at 1 h (in vivo; Seminal uptake): 7.61 ± 12.5 %ID/g | tissue uptake at 1 h (in vivo; Spleen uptake): 0.12 ± 0.03 %ID/g | tissue uptake at 1 h (in vivo; Stomach uptake): 0.06 ± 0.04 %ID/g | tissue uptake at 1 h (in vivo; Tail uptake): 0.2 ± 0.07 %ID/g | tissue uptake at 1 h (in vivo; Testes uptake): 0.11 ± 0.02 %ID/g | tissue uptake at 1 h (in vivo; Thyroid uptake): 0.09 ± 0.01 %ID/g | tissue uptake at 1 h (in vivo; Tumor uptake): 4.96 ± 2.75 %ID/g | excreta dose per gram or mL at 1 h (in vivo): 523 ± 330 %ID/g
